# Data from publication doi:10.1101/2025.10.03.680245 (bioRxiv, 2025).
# Key:
# [1] = biological target: the molecule itself; experiment: negative-stain transmission electron microscopy
# [2] = biological target: GFP-tagged Cdc11-capped recombinant septin octamers (budding yeast (S. cerevisiae), UniProt P32458;P32468;P32457;P25342); experiment: fluorescence microscopy of purified proteins in solution
binder,measurement,setting,value
Recombinant Cdc11-capped septin octamers (complex) chain 1: MSGIIDASSALRKRKHLKRGITFTVMIVGQSGSGRSTFINTLCGQQVVDTSTTILLPTDTSTEIDLQLREETVELEDDEGVKIQLNIIDTPGFGDSLDNSPSFEIISDYIRHQYDEILLEESRVRRNPRFKDGRVHCCLYLINPTGHGLKEIDVEFIRQLGSLVNIIPVISKSDSLTRDELKLNKKLIMEDIDRWNLPIYNFPFDEDEISDEDYETNMYLRTLLPFAIIGSNEVYEMGGDVGTIRGRKYPWGILDVEDSSISDFVILRNALLISHLHDLKNYTHEILYERYRTEALSGESVAAESIRPNLTKLNGSSSSSTTTRRNTNPFKQSNNINNDVLNPASDMHGQSTGENNETYMTREEQIRLEEERLKAFEERVQQELLLKRQELLQREKELREIEARLEKEAKIKQEE chain 2: MSAATATAAPVPPPVGISNLPNQRYKIVNEEGGTFTVMLCGESGLGKTTFINTLFQTVLKRADGQQHRQEPIRKTVEIDITRALLEEKHFELRVNVIDTPGFGDNVNNNKAWQPLVDFIDDQHDSYMRQEQQPYRTKKFDLRVHAVLYFIRPTGHGLKPIDIETMKRLSTRANLIPVIAKADTLTAQELQQFKSRIRQVIEAQEIRIFTPPLDADSKEDAKSGSNPDSAAVEHARQLIEAMPFAIVGSEKKFDNGQGTQVVARKYPWGLVEIENDSHCDFRKLRALLLRTYLLDLISTTQEMHYETYRRLRLEGHENTGEGNEDFTLPAIAPARKLSHNPRYKEEENALKKYFTDQVKAEEQRFRQWEQNIVNERIRLNGDLEEIQGKVKKLEEQVKSLQVKKSHLK chain 3: MSLKEEQVSIKQDPEQEERQHDQFNDVQIKQESQDHDGVDSQYTNGTQNDDSERFEAAESDVKVEPGLGMGITSSQSEKGQVLPDQPEIKFIRRQINGYVGFANLPKQWHRRSIKNGFSFNLLCVGPDGIGKTTLMKTLFNNDDIEANLVKDYEEELANDQEEEEGQGEGHENQSQEQRHKVKIKSYESVIEENGVKLNLNVIDTEGFGDFLNNDQKSWDPIIKEIDSRFDQYLDAENKINRHSINDKRIHACLYFIEPTGHYLKPLDLKFMQSVYEKCNLIPVIAKSDILTDEEILSFKKTIMNQLIQSNIELFKPPIYSNDDAENSHLSERLFSSLPYAVIGSNDIVENYSGNQVRGRSYPWGVIEVDNDNHSDFNLLKNLLIKQFMEELKERTSKILYENYRSSKLAKLGIKQDNSVFKEFDPISKQQEEKTLHEAKLAKLEIEMKTVFQQKVSEKEKKLQKSETELFARHKEMKEKLTKQLKALEDKKKQLELSINSASPNVNHSPVPTKKKGFLR chain 4: MDPLSSVQPASYVGFDTITNQIEHRLLKKGFQFNIMVVGQSGLGKSTLINTLFASHLIDSATGDDISALPVTKTTEMKISTHTLVEDRVRLNINVIDTPGFGDFIDNSKAWEPIVKYIKEQHSQYLRKELTAQRERFITDTRVHAILYFLQPNGKELSRLDVEALKRLTEIANVIPVIGKSDTLTLDERTEFRELIQNEFEKYNFKIYPYDSEELTDEELELNRSVRSIIPFAVVGSENEIEINGETFRGRKTRWSAINVEDINQCDFVYLREFLIRTHLQDLIETTSYIHYEGFRARQLIALKENANSRSSAHMSSNAIQR,binding result,[1],binds
"MBP-Bud4ΔN-HALO (domain or fragment, HaloTag Alexa-Fluor 660 fluorescent ligand on the HALO tag) MKPSDYISIWHIQEEEIKSNSPESIANSQFSQQSSITTASTVDSKKDNGSTSFKFKPRIVSRSRIYNPKSRVSSLNYYDNEDYILSNSEWNALDPMRRNTLISKRIQDNIRTQKGHAPLIRPSIMKLNGEDSGFQNHFLEVEQPQEHENIPLSTHLSEQDITTNVGLDEQKLPTNTQDEAEISIREIESAGDITFNRGDLLSLSFDEELGQDFANFLDALDHDSTSFNHGPDDSSSFQRDSSKKSFNSLWESSYELKPPPSIRKQPIAPDVLQKLLESDTKDDADLEKIREERITEPRTGLGIGMLKTPVKDVSIALAASIKGYEASFSDTDSRPEGMNNSDAITLNMFDDFEEDKMTPSTPVRSISPIKRHVSSPFKVVKAGNKQENNEINIKAEEEIEPMTQQETDGLKQDIPPLLAQTKDNVEAKEETITQLEEPQDVEQEFPDMGTLYLSIKAISTLALYGTKSHRATYAIVFDNGENVVQTPWESLPYDGNIRINKEFELPIDFKGKAETSSASSERDSYKKCVITLKCKYEKPRHELVEIVDKVPVGKSFFGKTKYKFEKKYVQKKPKQDEWDYLFAQDGSFARCEIEINEEFLKNVAFNTSHMHYNMINKWSRIADKIHGSKRLYELPRKAPHKVASLDVEACFLERTSAFEQFPKQFSLVNKIVSKYKLQQNIYKEGYLLQDGGDLKGKIENRFFKLHGSQLSGYHEISRKAKIDINLLKVTKVLRNEDIQADNGGQRNFTDWVLFNECFQLVFDDGERITFNAECSNEEKSDWYNKLQEVVELNVFHQPWVKKYCEKLAEEEKTRTTGHNLKQDFN",binding result,[2],binds
